Results from publication PMC2756588.

Legend:
Experiment in all cases: SPOT array
[1] = biological target: T1, Fus1, P11710; conditions: median of control spots 1200
T1 sequence (P11710 432-512, looked up): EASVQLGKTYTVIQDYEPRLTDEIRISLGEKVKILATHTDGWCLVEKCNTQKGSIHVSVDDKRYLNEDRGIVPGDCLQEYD

[2] = biological target: T2, Boi1, P38041; conditions: median of control spots 1162
T2 sequence (P38041 1-86, looked up): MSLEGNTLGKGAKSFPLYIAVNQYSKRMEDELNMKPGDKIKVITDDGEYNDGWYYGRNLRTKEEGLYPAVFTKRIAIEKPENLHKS

[3] = biological target: T3, Sla1-2, P32790; conditions: median of control spots 712
T3 sequence (P32790 60-140, looked up): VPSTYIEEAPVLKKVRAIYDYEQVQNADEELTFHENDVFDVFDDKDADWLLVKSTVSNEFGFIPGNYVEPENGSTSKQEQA

[4] = biological target: T4, Pin3, Q06449; conditions: median of control spots 2171
T4 sequence (Q06449 53-122, looked up): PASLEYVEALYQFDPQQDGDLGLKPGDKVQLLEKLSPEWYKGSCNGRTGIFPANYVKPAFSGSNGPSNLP

[5] = biological target: T5, Pex13, P80667; conditions: median of control spots 1341
T5 sequence (P80667 295-386, looked up): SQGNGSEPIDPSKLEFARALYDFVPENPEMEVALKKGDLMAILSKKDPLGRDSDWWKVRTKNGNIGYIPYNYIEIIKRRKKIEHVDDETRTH

[6] = biological target: T6, Lsb1, P53281; conditions: median of control spots 388
T6 sequence (P53281 45-122, looked up): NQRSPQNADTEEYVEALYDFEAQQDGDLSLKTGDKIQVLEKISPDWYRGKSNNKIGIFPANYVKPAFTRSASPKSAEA

[7] = biological target: T7, Myo5, Q04439; conditions: median of control spots 471
T7 sequence (Q04439 1072-1160, looked up): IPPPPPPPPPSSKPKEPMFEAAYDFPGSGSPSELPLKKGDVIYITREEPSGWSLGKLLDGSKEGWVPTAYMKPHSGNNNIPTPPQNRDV

[8] = biological target: T8, Hof1, Q05080; conditions: median of control spots 4086
T8 sequence (Q05080 590-669, looked up): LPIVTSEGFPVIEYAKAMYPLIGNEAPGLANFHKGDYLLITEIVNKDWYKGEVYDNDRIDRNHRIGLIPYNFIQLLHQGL

[9] = biological target: Rvs167, P39743; conditions: median of control spots 2707
Rvs167, P39743, sequence (P39743 419-482): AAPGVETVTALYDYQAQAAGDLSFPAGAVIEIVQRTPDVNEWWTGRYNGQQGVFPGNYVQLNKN

[10] = biological target: T9, Nbp2, Q12163; conditions: median of control spots 357
T9 sequence (Q12163 103-180, looked up): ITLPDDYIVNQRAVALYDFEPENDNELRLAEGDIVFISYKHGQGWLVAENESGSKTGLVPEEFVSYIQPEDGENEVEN

[11] = biological target: T10, Hse1, P38753; conditions: median of control spots 1727
T10 sequence (P38753 208-285, looked up): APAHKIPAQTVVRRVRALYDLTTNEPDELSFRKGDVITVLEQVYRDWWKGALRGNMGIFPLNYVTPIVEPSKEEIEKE

[12] = biological target: T11, Bbc1, P47068; conditions: median of control spots 796
T11 sequence (P47068 1-78, looked up): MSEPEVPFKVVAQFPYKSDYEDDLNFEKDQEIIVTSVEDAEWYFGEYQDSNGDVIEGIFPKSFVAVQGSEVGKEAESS

[13] = biological target: T12, Sla1-3, P32790; conditions: median of control spots 5475
T12 sequence (P32790 344-424, looked up): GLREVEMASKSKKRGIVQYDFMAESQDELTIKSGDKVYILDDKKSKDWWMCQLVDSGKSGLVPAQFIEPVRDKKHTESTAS

[14] = biological target: T13, Bzz1-1, P38822; conditions: median of control spots 4446
T13 sequence (P38822 478-572, looked up): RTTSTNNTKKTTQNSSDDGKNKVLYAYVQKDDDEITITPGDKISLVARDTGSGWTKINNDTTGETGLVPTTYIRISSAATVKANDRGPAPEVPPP

[15] = biological target: T14, Cyk3, Q07533; conditions: median of control spots 1451
T14 sequence (Q07533 1-83, looked up): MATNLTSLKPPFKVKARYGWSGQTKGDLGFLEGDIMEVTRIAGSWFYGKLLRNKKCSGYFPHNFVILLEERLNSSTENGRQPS

[16] = biological target: GST; conditions: median of control spots 978
[17] = biological target: T15, Bud14, P27637; conditions: median of control spots 956
T15 sequence (P27637 247-328, looked up): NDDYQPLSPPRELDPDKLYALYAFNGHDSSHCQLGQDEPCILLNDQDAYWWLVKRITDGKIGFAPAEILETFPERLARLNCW

[18] = biological target: T16, Abp1, P15891; conditions: median of control spots 935
T16 sequence (P15891 535-592, looked up): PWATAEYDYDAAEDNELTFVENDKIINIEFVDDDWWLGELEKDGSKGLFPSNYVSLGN

[19] = biological target: T17, Lsb4, P32793; conditions: median of control spots 397
T17 sequence (P32793 402-468, looked up): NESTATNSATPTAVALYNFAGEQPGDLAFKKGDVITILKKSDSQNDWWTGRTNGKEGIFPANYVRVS

[20] = biological target: Bem1-2, P29366; conditions: median of control spots 4347
Bem1-2, P29366, sequence (P29366 139-227): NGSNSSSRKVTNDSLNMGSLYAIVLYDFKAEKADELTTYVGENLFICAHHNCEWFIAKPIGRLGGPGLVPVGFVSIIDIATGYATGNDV

[21] = biological target: Myo3, P36006; conditions: median of control spots 468
[22] = biological target: T18, Cdc25, P04821; conditions: median of control spots 969
T18 sequence (P04821 50-136, looked up): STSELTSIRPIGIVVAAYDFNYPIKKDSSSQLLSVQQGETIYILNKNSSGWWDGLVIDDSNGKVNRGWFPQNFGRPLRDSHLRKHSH

[23] = biological target: T19, Bzz1-2, P38822; conditions: median of control spots 4538
T19 sequence (P38822 568-633, looked up): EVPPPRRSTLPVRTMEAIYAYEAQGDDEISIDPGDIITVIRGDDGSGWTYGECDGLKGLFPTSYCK

[24] = biological target: T20, Boi2, P39969; conditions: median of control spots 1161
T20 sequence (P39969 32-116, looked up): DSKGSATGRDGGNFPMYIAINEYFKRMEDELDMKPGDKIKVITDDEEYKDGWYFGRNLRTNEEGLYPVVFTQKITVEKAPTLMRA

[25] = biological target: Bem1-1, P29366; conditions: median of control spots 4282
Bem1-1, P29366, sequence (P29366 55-141): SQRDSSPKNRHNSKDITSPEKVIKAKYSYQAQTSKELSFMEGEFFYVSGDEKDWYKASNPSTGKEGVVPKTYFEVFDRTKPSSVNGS

[26] = biological target: T21, Lsb3, P43603; conditions: median of control spots 406
T21 sequence (P43603 385-451, looked up): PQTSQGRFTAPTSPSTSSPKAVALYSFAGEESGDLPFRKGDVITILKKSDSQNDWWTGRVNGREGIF

[27] = biological target: Sho1, P40073; conditions: median of control spots 1148
Sho1, P40073, sequence (P40073 287-367): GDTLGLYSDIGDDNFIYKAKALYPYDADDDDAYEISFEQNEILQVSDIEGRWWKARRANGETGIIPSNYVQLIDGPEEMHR

Binder EREKALPPIPFTTTL has an SPOT intensity [1] of 0, an SPOT intensity [2] of 0 and an SPOT intensity [3] of 1. The SPOT intensity [4] was 2, the SPOT intensity [5] was 12 and the SPOT intensity [6] was 16. For the same binder, the SPOT intensity [7] was 0, the SPOT intensity [8] was 354 and the SPOT intensity [9] was 2. The SPOT intensity [10] was 0, the SPOT intensity [11] was 1 and the SPOT intensity [12] was 0. The SPOT intensity [13] was 0, the SPOT intensity [14] was 0 and the SPOT intensity [15] was 0. It also gave an SPOT intensity [16] of 0, an SPOT intensity [17] of 0 and an SPOT intensity [18] of 0. It also gave an SPOT intensity [19] of 2, an SPOT intensity [20] of 0 and an SPOT intensity [21] of 0. For the same binder, the SPOT intensity [22] was 0, the SPOT intensity [23] was 0 and the SPOT intensity [24] was 0. For the same binder, the SPOT intensity [25] was 1, the SPOT intensity [26] was 4 and the SPOT intensity [27] was 1480.

Work on RRSKSLPITPKSIFN yielded an SPOT intensity [1] of 26, an SPOT intensity [2] of 0 and an SPOT intensity [3] of 1. For the same binder, the SPOT intensity [4] was 4, the SPOT intensity [5] was 8 and the SPOT intensity [6] was 0. For the same binder, the SPOT intensity [7] was 0, the SPOT intensity [8] was 0 and the SPOT intensity [9] was 0. It also gave an SPOT intensity [10] of 0, an SPOT intensity [11] of 0 and an SPOT intensity [12] of 15. It also gave an SPOT intensity [13] of 21, an SPOT intensity [14] of 0 and an SPOT intensity [15] of 0. For the same binder, the SPOT intensity [16] was 2, the SPOT intensity [17] was 10 and the SPOT intensity [18] was 117. The SPOT intensity [19] was 0, the SPOT intensity [20] was 0 and the SPOT intensity [21] was 0. The SPOT intensity [22] was 15, the SPOT intensity [23] was 0 and the SPOT intensity [24] was 0. It also gave an SPOT intensity [25] of 0, an SPOT intensity [26] of 0 and an SPOT intensity [27] of 1070.

For NENKKLPPAPTVFGL, the SPOT intensity [1] was 0, the SPOT intensity [2] was 2 and the SPOT intensity [3] was 0. The SPOT intensity [4] was 0, the SPOT intensity [5] was 9 and the SPOT intensity [6] was 0. It also gave an SPOT intensity [7] of 0, an SPOT intensity [8] of 25 and an SPOT intensity [9] of 2. The SPOT intensity [10] was 0, the SPOT intensity [11] was 0 and the SPOT intensity [12] was 0. The SPOT intensity [13] was 1, the SPOT intensity [14] was 3 and the SPOT intensity [15] was 1. It also gave an SPOT intensity [16] of 0, an SPOT intensity [17] of 2 and an SPOT intensity [18] of 9. The SPOT intensity [19] was 0, the SPOT intensity [20] was 0 and the SPOT intensity [21] was 0. It also gave an SPOT intensity [22] of 4, an SPOT intensity [23] of 0 and an SPOT intensity [24] of 0. It also gave an SPOT intensity [25] of 2, an SPOT intensity [26] of 1 and an SPOT intensity [27] of 927.

With IVNKPLPPLPVAGSS the SPOT intensity [1] was 0, the SPOT intensity [2] was 1 and the SPOT intensity [3] was 0. The SPOT intensity [4] was 0, the SPOT intensity [5] was 688 and the SPOT intensity [6] was 0. It also gave an SPOT intensity [7] of 0, an SPOT intensity [8] of 1440 and an SPOT intensity [9] of 0. It also gave an SPOT intensity [10] of 0, an SPOT intensity [11] of 59 and an SPOT intensity [12] of 0. The SPOT intensity [13] was 0, the SPOT intensity [14] was 0 and the SPOT intensity [15] was 0. It also gave an SPOT intensity [16] of 0, an SPOT intensity [17] of 0 and an SPOT intensity [18] of 301. The SPOT intensity [19] was 0, the SPOT intensity [20] was 0 and the SPOT intensity [21] was 0. For the same binder, the SPOT intensity [22] was 0, the SPOT intensity [23] was 2 and the SPOT intensity [24] was 0. It also gave an SPOT intensity [25] of 0, an SPOT intensity [26] of 2 and an SPOT intensity [27] of 2240.

Binder DLFKPLPEPPTELGR has an SPOT intensity [1] of 0, an SPOT intensity [2] of 0 and an SPOT intensity [3] of 0. The SPOT intensity [4] was 0, the SPOT intensity [5] was 47 and the SPOT intensity [6] was 0. The SPOT intensity [7] was 0, the SPOT intensity [8] was 2 and the SPOT intensity [9] was 0. The SPOT intensity [10] was 0, the SPOT intensity [11] was 1 and the SPOT intensity [12] was 0. It also gave an SPOT intensity [13] of 0, an SPOT intensity [14] of 0 and an SPOT intensity [15] of 0. It also gave an SPOT intensity [16] of 0, an SPOT intensity [17] of 0 and an SPOT intensity [18] of 0. The SPOT intensity [19] was 0, the SPOT intensity [20] was 0 and the SPOT intensity [21] was 0. It also gave an SPOT intensity [22] of 0, an SPOT intensity [23] of 0 and an SPOT intensity [24] of 0. It also gave an SPOT intensity [25] of 0, an SPOT intensity [26] of 6 and an SPOT intensity [27] of 1320.

AATTSTPPLPRRRAT showed an SPOT intensity [1] of 0, an SPOT intensity [2] of 0 and an SPOT intensity [3] of 0. It also gave an SPOT intensity [4] of 35, an SPOT intensity [5] of 364 and an SPOT intensity [6] of 243. It also gave an SPOT intensity [7] of 0, an SPOT intensity [8] of 5 and an SPOT intensity [9] of 2280. The SPOT intensity [10] was 0, the SPOT intensity [11] was 2 and the SPOT intensity [12] was 103. The SPOT intensity [13] was 0, the SPOT intensity [14] was 0 and the SPOT intensity [15] was 1. For the same binder, the SPOT intensity [16] was 1, the SPOT intensity [17] was 1 and the SPOT intensity [18] was 109. It also gave an SPOT intensity [19] of 1360, an SPOT intensity [20] of 0 and an SPOT intensity [21] of 31. For the same binder, the SPOT intensity [22] was 4, the SPOT intensity [23] was 0 and the SPOT intensity [24] was 2. For the same binder, the SPOT intensity [25] was 0, the SPOT intensity [26] was 877 and the SPOT intensity [27] was 38.
